Experiment: label from the status in PepcDB records
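Also: failed if final PepcDB status was selected cloned or expressed and not failed if soluble or beyond.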

Row | Sequence | protein production
1 | MKRSLLACAMSCMMLTVSAHSDFDVRNVDSQFHVPEIGGGVGLIDQQKERQIGEKVFREIQKQMPVVHDPWLQEQYSQIFLRVLAQTSITQPVGLVIIKDPQINAFAVPGGLFALNTGLIANARNIDEVAGVMAHEVAHVTQRHYSRSQEAFKGQGLLALAGILVGAAVATTSNADVGSAVMLGTQAALMDRQLTYSRNQEREADRIGMQYMYAAGYNPQSMADFFETMQRSRVGSSFMPDFWMTHPLTTERMSEARLRANQLPKVETKLYDPNFQLLKWYTLAVSDPSSEKILENVVKQGNKEAQLALGAYYVGQGDFVKAQKQLDDIKSQFNENTLYCLIQTNIYLGQNELDQAYSSIVNIQRAMPESRALAYKLAEVMILQGKAGDTLQLIQPFVNRNPRDLEGWQLMQQASSIDRISPVQTVNTLRYRAEVQFWSGNEENAIKSLLHAQRLAKGNESLSARIDSRLKQMQSDYTMKI | failed
2 | MNYSHPISLKTLVQEDDIGVNAPIIHQSVIARLTAGLYPLYQSKKIPFEPLPETMLTEGYSSPVPDVLLYDHQTEEAKVIIEVCQNSGLKHDTSKIVKLIEDNAYGILEGFVFNYKTQQWLRYRLGDGGVATNSSFSEVLQVDLNTFV | not failed
3 | MEAKKSNKIREIVKLQQLLKKWRKQAIASKAANNNNEDNNSSGGGSKSIKFLKRTLSFTDVTAVPKGYLAVSVGLEKKRYTIPTEYLSHQAFYVLLREAEEEFGFQQAGVLRIPCEVSVFESILKIMEEKNEGYLVTPITAKQECKFNAAADDKTSYQHPSDCPKTPSHQPHNSPMCR | not failed
4 | MARYINITLEKRGVTCKALLLDDVAPRTSKAVWDALPQSSQVFHGKYARNEIYNLVPAFAPKEPGAENTTVTPIPGDVCYFTFTSNDLKTPSHGYEADSGTDEVQTIVDLAVFYGRNNLLLNGDTGWVPGNVFATIVEGLDEMAAACQDIWMGGARDETLTFSRAEDTA | not failed
5 | MIGDYERFKQLKKKVAEALNISEEELDRMIDKKIEENGGIILKDAALMMIAKEHGVYGEEKNDEEFLISDIEEGQIGVEITGVITDISEIKTFKRRDGSLGKYKRITIADKSGTIRMTLWDDLAELDVKVGDVIKIERARARKWRNNLELSSTSETKIKKLENYEGELPEIKDTYNIGELSPGMTATFEGEVISALPIKEFKRADGSIGKLKSFIVRDETGSIRVTLWDNLTDIDVGRGDYVRVRGYIREGYYGGLECTANYVEILKKGEKIESEEVNIEDLTKYEDGELVSVKGRVIAISNKKSVDLDGEIAKVQDIILDNGTGRVRVSFWRGKTALLENIKEGDLVRITNCRVKTFYDREGNKRTDLVATLETEVIKDENIEAPEYELKYCKIEDIYNRDVDWNDINLIAQVVEDYGVNEIEFEDKVRKVRNLLLEDGTGRIRLSLWDDLAEIEIKEGDIVEILHAYAKERGDYIDLVIGKYGRIIINPEGVEIKTNRKFIADIEDGETVEVRGAVVKILSDTLFLYLCPNCRKRVVEIDGIYNCPICGDVEPEEILRLNFVVDDGTGTLLCRAYDRRVEKMLKMNREELKNLTIEMVEDEILGEEFVLYGNVRVENDELIMVVRRVNDVDVEKEIRILEEME | failed
6 | TAQLTIEAVPSNAAEGKEVLLLVHNLPQDPRGYNWYKGETVDANRRIIGYVISNQQITPGPAYSNRETIYPNASLLMRNVTRNDTGSYTLQVIKLNLMSEEVTGQFSVHPETPKPSI | not failed
7 | GHMAIQRRIRRVKTVQMTTNSPIHRSGSVLEPGNWQEYDPFLLLMEDIFERGTFDVHPHRGIETVTYVISGELEHFDSKAGHSTLGPGDVQWMTAGRGVVHKEDPASGSTVHSLQLWVNLPSAYKMTEPRYQNLRSKDMPVRKEEGATIRVFSGSSKGVKAPTKNIVPVTMVEMIVEPGTTVVQDLPGHYNGFLYILEGSGVFGADNIEGKAGQALFFSRHNRGEETELNVTAREKLRLLLYAGEPVNEPVVAYGPFVMNTPEQIREAIRDYQEGRFGR | not failed
8 | MTDTTQRIFLSYAGPDQAWAEWVGWQLQQAGHQVELDRWHWRTGDDFVQKMNLALGKADAVVALFSRHYFEPKRWTREEWSAAVALRGRLVPVAIELLNDDDIPALLAGTLRTDVHGLDEAAATSALLEAVHGPVPPTGPVDFPGAASADAPTAPDAQRPRLPSSVGLPEVWNVRRRNPDFSGRETVMGQLRTGLLSGRQAVVQALHGMGGIGKTQIALEYAHRFASQYDLVWWVDAEQADQLPVRYTELADRLGVAKSDAGSEPNARALLQHLRTRHRWLLVLDNAEHPDQIEPWLPEGPGHVLITSRNPDWHGIAHQSDLDVFTRTDSLAYLKGRISGMTTEHADLLAQDLGDLPLALAQASGVLRSGMTLDRYRRLLTTDTARLLQESDVRDHPAPLAATVGIAVTRLADDGHADAVALLRLGAFLGPEPIPTAWLETARPRLATIPGDPDDPMWLRNALQPLGRFGLARTDYDAFQIHRLTQAILRTQTGPDPVVAIRDDVTAVLAAVDPGDPRSPADWPAWASLTAHLTAPHVTTALAHQAALRATFSKAAHFLICSGLPRAAHDLSAALHQAWSTDLGPDHPDTLTCAQFLGHATVDLGDYAKGRLIIEDTLVRRRRVLGEDHPDTLRSANDTSTNLSLLGERVEARRMHEDVLARRRRVLGEDHPDTLTSAGNLATILNKSGEYVEARRMQEDVLARRRRVLGEDHPDTLTSAHNLAGLLNSLGEHAESRRMQEDVLARRGLVLGEDHPDTLSSASNLATSLNSLGEHAESRRMHEDVLARRGLVLGQDHPDTLSSANKLATSLNGLGEHAEARRMHEDVLARRGVVLGQDHPSTLASAGNLATTLNSLGEHVEAHRMQEDVLARCRRVLGQDHPDTLTSASNLARTLHTLRQYSEAAELLKEVRASYVRHFGAKHPKTELATRNLATVLIAMGKTHEAQQLTGRKSDKGKRRFGRKRR | failed
9 | SEQSSPGFRQTHLQDLSEATQDVKEENHYLTPRSVLLELDNIIASSDSGESIETDGPDQVSGRIECHYEPMESYFFKETSHESVDSSKEEPQTLPETQDGDLHLQEQGSGIDWCLSPADVEAQTTNDQKGSASLTVVQLSILINNIPDESQVEKLNVFLSPPDVINYLALTEATGRICVSQWEGPRRLGCIFCHGDHLLAVNDLKPQSLEEVSLFLTRSIQKEKLKLTIGRIPNSETFHAASCMCPSKCQSAAPSQLDKPRLNRAPKRSPAIKKSQQKGARE | not failed
10 | MGSSHHHHHHSSGENLYFQGHMKTADLCDQFLDELQVCELPFQSYGGKRMFSGPIATVDVFEDNVLVREALETVPPGTVLVVDGKGSRRVALLGDRLAQIACERGLAGVIIHGCIRDSAEIGAMPIGVMAIGTCPVKSKKEGKGARDVVLEFGGVRWEPGAYVYADADGVVVANKDLLAKNG | not failed
11 | MSLKYLGVYVMEVQKNSSFKNKLQIGDTVLGANGHRFHSTEEMMTYLRKQKINSKVTISVLRGKEKLEHHHHHH | failed
12 | MKLRSWEFYDRIARAYDSMYETPKWKLYHRLIGSFLEEYLKNPCRVLDLGGGTGKWSLFLQERGFEVVLVDPSKEMLEVAREKGVKNVVEAKAEDLPFPSGAFEAVLALGDVLSYVENKDKAFSEIRRVLVPDGLLIATVDNFYTFLQQMIEKDAWDQITRFLKTQTTSVGTTLFSFNSYAFKPEDLDSLEGFETVDIRGIGVMEYPDERISEREETIFRLEQELSRDRNIIWKADHIFFVLKKKRGA | not failed
13 | SLLSYQHGYHAGNFADVIKHITLTRLLAYLTHKDKPLFYLETHSGRGIYDLKDKQSLKTEEYKEGINPVWLDRENLPSLFLEYISVIKQINLNSTLSYYPGSPYFAINQLRSQDRLYLCELHPTEYNFLLKLPHFNKKVYVNHTDGVSKLNALLPPPEKRGLIFIDPSYERKEEYKEIPYAIKNAYSKFSTGLYCVWYPVVNKAWTEQFLRKMREISSKSVRIELHLNPLINEGMTGCGLWIINPPYTFPSEIKLVLETLTTYFNPGSSSYMIESGSKLCHGL | not failed
14 | MAEEQQNSSYSIGGNILPTPEEAATFQPQVVAEGGWDKCWEDGVTPWDQGRATPLILHLLDSSALPLGRTLVPGCGGGHDVVAMASPERFVVGLDISDKALNKANETYGSSPKAEYFSFVKEDVFTWRPNELFDLIFDYVFFCAIEPEMRPAWGKSMHELLKPDGELITLMYPMTDHEGGAPYKVALSSYEDVLVPVGFKAVSVEENPDSIPTRKGKEKLARWKKIN | failed
15 | MSLIASIGELLIDLISVEEGDLKDVRLFEKHPGGAPANVAVGVSRLGVKSSLISKVGNDPFGEYLIEELSKENVDTRGIVKDEKKHTGIVFVQLKGASPSFLLYDDVAYFNMTLNDINWDIVEEAKIVNFGSVILARNPSRETVMKVIKKIKGSSLIAFDVNLRLDLWRGQEEEMIKVLEESIKLADIVKASEEEVLYLENQGVEVKGSMLTAITLGPKGFRLIKNETVVDVPSYNVNPLDTTGAGDAFMAALLVGILKLKGLDLLKLGKFANLVAALSTQKRGAWSTPRKDELLKYKEAREVLAEGHHHHHH | not failed
16 | MFPAQEEADRTVFVGNLEARVREEILYELFLQAGPLTKVTICKDREGKPKSFGFVCFKHPESVSYAIALLNGIRLYGRPINVQYRFGSSRSSEPANQSFESCVKINSHNYRNEEMLVGRSSFPMQYFPINNTSLPQEYFLFQKMQWHVYNPVLQLPYYEMTAPLPNSASVSSSLNHVPDLEAGPSSYKWTHQQPSDSDLYQMTAPLPNSASVSSSLNHVPDLEAGPSSYKWTHQQPSDSDLYQMNKRKRQKQTSDSDSSTDNNRGNECSQKFRKSKKKKRY | not failed
17 | MFHYTVDVSTGMNETIERLEESLKQEGFGVLWQFSVTEKLQEKGLDFSTPMVILEVCNPQEAARVLNENLLVGYFLPCKLVVYQENGTTKIGMPKPTMLVGMMNDPALKEIAADIEKRLAACLDRCR | not failed
18 | MDKIRSLRFFIATLEGGSFAAAAKAYGTDPSTVSKAIHRLESDLGIQLFQRSTRQIRLTEAVRRYANTARFVLDELAACEDSLKSHNDALSGLLKINVPVSYGRLYIRPLLKEFCRRYPSITIDIHYDDAYVDIIEQGIDVSIRSGVVQDSQLIVRQLSPIDFIICGSQDYLTRHGVPSGPDAFNDHSWVRFRFKQTGKLLPIRMPEPDGTSEYNPERNFIVNDGESMAELCAEGLGLTQIPHFIARDWLKVGRLVPIFPSMRQAGNGVYLLYANREYVPARVRVFIDFITQAIQDMDETPFHTWAETLPIYQPNQGD | failed
19 | MSRMETSRTLSAFPKIISVDDHTVEPPDVWRDRLPKKYQDTGPRIVRAPLKEMTFLGGKFAPVMGGPGDDGPLGDWWVYEDLHRPLTRLDTAVGYSRDEIKLEVITYEQMRPGSYDVPRRLADMDVNHVQSALCFPTFPRFCGQTFTEAKDRELGLLGVRAYNDWMVEEWCGPDAHGRLIPLTLVPLWDARLAAAEVRRNAARGVRAVAFSEIPPHLGLPSVHTDDWDPFLAACDETGTVIAMHIGSSSRMPSTSADAPPAVGSTITFANCCFSMVDWLMSGKFERFPNLRVMYAEGQIGWIPYILERADVVWEENRGWGGVADKVHRPPSELFAGHVFGCFFDDAFGLRNLDAIGIGNVLYETDYPHSDSTWPKSREVGEAQMGHLEAEVVERIVRGNAIELLGLTDDGLWAGPGGAR | failed
20 | MPWQQQPIRYSADLEKPSPREQADIEKIMAKLLKNNERAYDKYKHGLRDAHAKSHAILRGELIVNEGLPPELAQGLFAEPRTYPVIARLSSTSGVRRSDKTRGVRGLGLKVLGVQGEKILPDDSSTNQDFVMVTHEDFLFADAHAYAGLGMITASLLARLSDQALWLGSGLLDLVSKAGIKLPDNLMVFVAPNRPILGLEFFSSAPFRHGDHVAKYRFAPASENVKALSGQLLPRNPAPEQHRDMIAEFFADQTAEFDFSAQLCTDPVAMPIEDAGKNWDKSISPYVSVAKIVFGPQNPYSALRRAYGDDVLAFNSWRGLAEHRPLGSINRLKKTVYESSADYRHRVNRIDRHEPLEHHHHHH | failed
21 | MFLFMVSRNFSRRDFLKMTAGGVVLASAMPTLSWASLPDEPRVLAMNNLNTGELLETCYFDGNRYVGKELQRLNEFCRDHRRNEVHPMDKRLFDQISQIQKLIGTESEVIVISGYRSPVTNASLRSGSTGVAKKSLHMEGKAIDFRLDGVKLSTVRDAAISLKAGGVGYYPGSNFVHIDTGAVRSW | failed

Reference: a protein production outcome set (Wang et al. 2014)
